We go through one molecule from paper PMC9890228 (The EMBO Journal, 2022).

The target in the assay is T1, FANCD2 (human, UniProt Q9BXW9 1-1451).
T1 construct: The cryo-EM methods say only 'purified FANCD2'; The ubiquitination and deubiquitination reactions used N-terminally FLAG-tagged FANCD2; the functional rows use this molecule for it (for the USP1 rows in its K561-ubiquitinated form, D2Ub); Constructs as in Arkinson et al 2018 and Rennie et al 2020; also called D2^WT; source: Sf21 insect cells, purified (NiNTA, anion exchange, gel filtration)
T1 sequence (Q9BXW9 whole entry): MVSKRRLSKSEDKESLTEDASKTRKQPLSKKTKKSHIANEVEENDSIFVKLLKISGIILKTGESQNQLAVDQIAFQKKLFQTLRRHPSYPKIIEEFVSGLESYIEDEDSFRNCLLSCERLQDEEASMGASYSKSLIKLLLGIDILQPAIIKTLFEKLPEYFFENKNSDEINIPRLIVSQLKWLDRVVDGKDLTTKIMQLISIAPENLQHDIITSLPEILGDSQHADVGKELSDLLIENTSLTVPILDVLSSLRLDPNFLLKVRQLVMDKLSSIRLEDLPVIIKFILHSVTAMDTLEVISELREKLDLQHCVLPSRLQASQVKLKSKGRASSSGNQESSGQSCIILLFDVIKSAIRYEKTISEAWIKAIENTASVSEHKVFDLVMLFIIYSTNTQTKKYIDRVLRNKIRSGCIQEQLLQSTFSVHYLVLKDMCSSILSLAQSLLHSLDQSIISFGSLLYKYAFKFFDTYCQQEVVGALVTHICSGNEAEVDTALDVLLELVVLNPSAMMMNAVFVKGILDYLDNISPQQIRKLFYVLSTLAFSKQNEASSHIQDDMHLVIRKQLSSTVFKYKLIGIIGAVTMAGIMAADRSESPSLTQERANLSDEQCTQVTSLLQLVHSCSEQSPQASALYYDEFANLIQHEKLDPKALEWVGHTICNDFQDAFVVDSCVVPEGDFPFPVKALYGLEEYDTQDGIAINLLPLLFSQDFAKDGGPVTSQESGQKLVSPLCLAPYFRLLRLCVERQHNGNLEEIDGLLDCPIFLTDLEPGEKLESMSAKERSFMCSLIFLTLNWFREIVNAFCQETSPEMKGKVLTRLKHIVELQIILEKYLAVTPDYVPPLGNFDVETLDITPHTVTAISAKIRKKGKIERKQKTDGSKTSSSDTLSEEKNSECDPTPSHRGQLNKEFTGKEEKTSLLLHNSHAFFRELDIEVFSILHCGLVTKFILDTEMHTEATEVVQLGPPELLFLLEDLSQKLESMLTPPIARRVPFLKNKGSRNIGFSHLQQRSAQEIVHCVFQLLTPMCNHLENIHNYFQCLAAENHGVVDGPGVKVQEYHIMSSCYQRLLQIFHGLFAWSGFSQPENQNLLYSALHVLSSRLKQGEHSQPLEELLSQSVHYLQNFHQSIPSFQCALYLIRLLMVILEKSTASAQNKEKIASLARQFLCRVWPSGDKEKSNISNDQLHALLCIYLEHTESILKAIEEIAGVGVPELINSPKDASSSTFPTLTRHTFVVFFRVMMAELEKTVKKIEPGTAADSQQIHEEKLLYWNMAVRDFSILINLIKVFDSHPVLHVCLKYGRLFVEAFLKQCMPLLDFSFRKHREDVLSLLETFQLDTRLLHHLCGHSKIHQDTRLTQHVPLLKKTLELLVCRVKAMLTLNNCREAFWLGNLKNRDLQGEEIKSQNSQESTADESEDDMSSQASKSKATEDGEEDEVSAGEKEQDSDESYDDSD
The assay can be described thus: cryo-EM structure; ubiquitinated His6-V5-FANCI mixed with FANCD2 at 1:1 molar ratio, 61 bp dsDNA added at 1:1; 20 mM Tris pH 8.0, 150 mM NaCl, 2 mM DTT; 4.1 Å global resolution. Particulars: both partners purified.

B1: FANCI (the FANCI chain of ubiquitinated His6‐V5‐FANCI) (natural protein, human, UniProt Q9NVI1 1-1328, looked up)
chain: MDQKILSLAAEKTADKLQEFLQTLREGDLTNLLQNQAVKGKVAGALLRAIFKGSPCSEEAGTLRRRKIYTCCIQLVESGDLQKEIASEIIGLLMLEAHHFPGPLLVELANEFISAVREGSLVNGKSLELLPIILTALATKKENLAYGKGVLSGEECKKQLINTLCSGRWDQQYVIQLTSMFKDVPLTAEEVEFVVEKALSMFSKMNLQEIPPLVYQLLVLSSKGSRKSVLEGIIAFFSALDKQHNEEQSGDELLDVVTVPSGELRHVEGTIILHIVFAIKLDYELGRELVKHLKVGQQGDSNNNLSPFSIALLLSVTRIQRFQDQVLDLLKTSVVKSFKDLQLLQGSKFLQNLVPHRSYVSTMILEVVKNSVHSWDHVTQGLVELGFILMDSYGPKKVLDGKTIETSPSLSRMPNQHACKLGANILLETFKIHEMIRQEILEQVLNRVVTRASSPISHFLDLLSNIVMYAPLVLQSCSSKVTEAFDYLSFLPLQTVQRLLKAVQPLLKVSMSMRDCLILVLRKAMFANQLDARKSAVAGFLLLLKNFKVLGSLSSSQCSQSLSVSQVHVDVHSHYNSVANETFCLEIMDSLRRCLSQQADVRLMLYEGFYDVLRRNSQLANSVMQTLLSQLKQFYEPKPDLLPPLKLEACILTQGDKISLQEPLDYLLCCIQHCLAWYKNTVIPLQQGEEEEEEEEAFYEDLDDILESITNRMIKSELEDFELDKSADFSQSTSIGIKNNICAFLVMGVCEVLIEYNFSISSFSKNRFEDILSLFMCYKKLSDILNEKAGKAKTKMANKTSDSLLSMKFVSSLLTALFRDSIQSHQESLSVLRSSNEFMRYAVNVALQKVQQLKETGHVSGPDGQNPEKIFQNLCDITRVLLWRYTSIPTSVEESGKKEKGKSISLLCLEGLQKIFSAVQQFYQPKIQQFLRALDVTDKEGEEREDADVSVTQRTAFQIRQFQRSLLNLLSSQEEDFNSKEALLLVTVLTSLSKLLEPSSPQFVQMLSWTSKICKENSREDALFCKSLMNLLFSLHVSYKSPVILLRDLSQDIHGHLGDIDQDVEVEKTNHFAIVNLRTAAPTVCLLVLSQAEKVLEEVDWLITKLKGQVSQETLSEEASSQATLPNQPVEKAIIMQLGTLLTFFHELVQTALPSGSCVDTLLKDLCKMYTTLTALVRYYLQVCQSSGGIPKNMEKLVKLSGSHLTPLCYSFISYVQNKSKSLNYTGEKKEKPAAVATAMARVLRETKPIPNLIFAIEQYEKFLIHLSKKSKVNLMQHMKLSTSRDFKIKGNILDMVLREDGEDENEEGTASEHGGQNKEPAKKKRKK
modifications: K523 isopeptide-linked to G76 of ubiquitin
notes: The FANCI chain of m1, written on its own for its contacts with FANCD2 in the structure; source: Sf21 insect cells, purified (NiNTA, anion exchange, gel filtration); ubiquitinated in vitro; not shown: His6, N-terminal, kept; V5, N-terminal, kept
Take B1: the binding result is recorded as “binds”.
